Measured values taken from patent publication US6261569.

Biological target: riMod, retro-inverso model peptide
Assay: ELISA, immobilised riMod-BSA

“non-immune mouse serum (polyclonal serum or antibody)” was tested, and the titre (reciprocal of highest serum dilution) was 80.
